Assay results from patent publication US20180118802A1 (published 2018).
Numbering of substitutions follows the chain as printed. Read-outs that look alike come from different tables or passages of the source.

T1: LRP2 CR89 V1047D R1088D (human, UniProt P98164 1022-1105)
T1 construct: also called YDWD
T1 sequence: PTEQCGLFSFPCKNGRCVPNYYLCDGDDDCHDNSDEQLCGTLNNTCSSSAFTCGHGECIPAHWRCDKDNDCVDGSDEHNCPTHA

T2: LRP2 CR89 V1047D (human, UniProt P98164 1022-1105)
T2 construct: also called YDWR
T2 sequence: T1 sequence with D68R

T3: LRP2 CR89 Y1042W (human, UniProt P98164 1022-1105)
T3 construct: also called WVWR
T3 sequence: T1 sequence with Y22W, D27V, D68R

T4: LRP2 CR89 Y1042W R1088D (human, UniProt P98164 1022-1105)
T4 construct: also called WVWD
T4 sequence: T1 sequence with Y22W, D27V

T5: LRP2 CR89 Y1042W V1047D R1088D (human, UniProt P98164 1022-1105)
T5 construct: also called WDWD
T5 sequence: T1 sequence with Y22W

T6: LRP2 CR89 Y1042W V1047D (human, UniProt P98164 1022-1105)
T6 construct: also called WDWR
T6 sequence: T1 sequence with Y22W, D68R

B1: RAP d3 (ligand, not shown: small tags and cut ends)
chain: LDRLRRVSHQGYSTEAEFEEPRVIDLWDLAQSANLTDKELEAFREELKHFEAKIEKHNHYQKQLEIAHEKLRHAESVGDGERVSRSREKHALLEGRTKELGYTVKKHLQDLSGRISRAR
notes: also called wild-type RAP d3
B2: MegaRAP1 d3 (ligand, not shown: small tags and cut ends)
chain: B1 chain with S13T, E17K, H49Y, E51K, K56A, K70E
notes: also called RAPv2A d3; RAP v2
B3: MAT CR12 (other)
chain: PCPGQFTCRTGRCIRKELRCDGWADCTDHSDELNCSCDAGHQFTCKNKFCKPLFWVCDSVNDCGDNSDEQGCS
notes: also called ST14 CR12; not shown: N-terminal hexahistidine/S-peptide tag of pET30(+)a

Tests used:
LRP1 CR3-5 [1] = target: T7, LRP1 CR3-5 (human, UniProt Q07954 852-973); test: solid-phase binding assay, CR protein coated, anti-RAP detection
T7 construct: range 852-973; not shown: N-terminal hexahistidine and S-peptide of pET30(+)a
Description: (§1) Alternatively, the affinity differences between MegaRAP I d3 and MegaRAP1 d3 E270K may have been insufficient to alloW the latter to predominate upon iterative panning. A double revertant, T213S, E270K, had binding behavior that was not distinguishable from MegaRAP1 d3 in our assays. […] The binding behavior of the K251E, E270K double revertant implies a strong dependence of the affinity of MegaRAP1 d3 for LRP2 CR89 on the E251K mutation. […] Therefore, the K256A mutation in MegaRAP1 d3 is a crucial determinant of the ability of this variant to discriminate between the two receptor fragments, exerting its effect by negatively impacting affinity for LRP1 CR3-5 while at the same time improving affinity for LRP2 CR89.

VLDLR CR6-8 = target: T8, VLDLR CR6-8 (human, UniProt P98155 235-358); test: as above
T8 construct: range 235-358; not shown: N-terminal hexahistidine and S-peptide of pET30(+)a
Description: as §1

LRP1 CR3-5 [2] = target: T7, LRP1 CR3-5; test: as above; remark: listed apart in the source
Experimental: (§2) Wells were washed with TBSTC and bound ligands detected with polyclonal anti-RAP (BP41/42, 1:1,000, BioMarin). Excess primary antibody was removed and wells washed before incubation with the secondary antibody, HRP-conjugated goat anti rabbit IgG (Bio-Rad). After washing, TMB substrate solutions (Bio-Rad) were added to detect HRP. Color development was stopped with 1N HCl. Absorption at 450 nm was measured with a microplate spectrophotometer (Molecular Devices). Data were plotted and Kd values derived by non-linear regression with the assumption of single-site binding (GraphPad Prism).
(§3) Next, the binding of RAP d3 and MegaRAP1 d3 proteins to LRP1 CR3-5 and LRP2 CR89 was assessed. […] In all cases, 10 mM EGTA prevented binding of both RAP d3 and MegaRAP1 d3 to CR proteins. Since calcium was the only divalent metal ion present in the binding buffer, this observation is consistent with both RAP d3 and MegaRAP1 d3 binding to calcium-loaded CR pairs. […] Therefore, wild-type RAP d3 and MegaRAP1 d3 have inverted binding preferences for these two receptor fragments.

LRP2 CR89 [3] = target: T9, LRP2 CR89 (human, UniProt P98164 1025-1102); test: as above
T9 construct: domain: CR89; also called YVWR; not shown: N-terminal hexahistidine and S-peptide of pET30(+)a
Experimental: as §2, §3

LRP2 CR89 [4] = target: T9, LRP2 CR89; test: as above; remark: listed apart in the source
Experimental: (§4) Solid phase binding assays—Purified, refolded CR protein (1 μg) was bound to Nunc Maxisorp™ 96-well plates in TBS pH 8 supplemented with 5 mM CaCl₂ (TBSC) overnight at 4° C. Wells were washed with TBSC and then blocked with TBSC containing 2% bovine serum albumin (BSA). RAP ligands were then incubated with the immobilized receptor at a range of concentrations for 2 hours in the above blocking buffer supplemented with 0.05% Tween-20 at room temperature. Control wells contained no added ligand. As an additional control, to determine whether the absence of calcium affected binding, 10 mM EGTA was included in the incubation medium for some samples. Wells were washed with TBSTC and bound ligands detected with polyclonal anti-RAP (BP41/42, 1:1,000, BioMarin). Excess primary antibody was removed and wells washed before incubation with the secondary antibody, HRP-conjugated goat anti rabbit IgG (Bio-Rad). After washing, TMB substrate solutions (Bio-Rad) were added to detect HRP. Color development was stopped with 1N HCl. Absorption at 450 nm was measured with a microplate spectrophotometer (Molecular Devices). Data were plotted and Kd values derived by non-linear regression with the assumption of single-site binding (GraphPad Prism).
(§5) One premise of this work was that amino acids at A, C, A′ and C′ within the calcium-binding loops of a CR pair were key determinants of binding affinity for RAP and would be similarly important for binding of RAP variants. To test this idea, mutant LRP2 CR89 were prepared in which the native, non-canonical residues at these positions were sequentially substituted with the non-native, canonical residues. As defined above, the A, C, A′, C′ string for LRP2 CR89 is YVWR. Mutants included LRP2 CR89 Y1042W (WVWR), LRP2 CR89 V1047D (YDWR), LRP2 CR89 R1088D (YVWD), LRP2 CR89 V1047D R1088D (YDWD), LRP2 CR89 Y1042W V1047D R1088D (WDWD), LRP2 CR89 Y1042W V1047D (WDWR), LRP2 CR89 Y1042W R1088D (WVWD). Binding to both RAP d3 and MegaRAP1 d3 were measured for each LRP2 CR89 mutant by solid-phase assay.

LRP2 CR89 R1088D = target: T10, LRP2 CR89 R1088D (human, UniProt P98164 1022-1105); test: as above
T10 construct: also called YVWD
Experimental: as §4, §5

LRP2 CR89 V1047D R1088D = target: T1, LRP2 CR89 V1047D R1088D; test: as above
Experimental: as §4, §5

LRP2 CR89 V1047D = target: T2, LRP2 CR89 V1047D; test: as above
Experimental: as §4, §5

LRP2 CR89 Y1042W = target: T3, LRP2 CR89 Y1042W; test: as above
Experimental: as §4, §5

LRP2 CR89 Y1042W R1088D = target: T4, LRP2 CR89 Y1042W R1088D; test: as above
Experimental: as §4, §5

[5] = target: T5, LRP2 CR89 Y1042W V1047D R1088D; test: as above
Experimental: as §4, §5

LRP1 CR3-5 [6] = target: T7, LRP1 CR3-5; test: as above; remark: listed apart in the source
Experimental: as §4

LRP2 CR89 Y1042W V1047D = target: T6, LRP2 CR89 Y1042W V1047D; test: as above
Experimental: as §4, §5

RAP d3 = target: B1; test: solid-phase binding assay, ligand at 80 nM, CR protein coated (FIG. 7)
Experimental: as §4
The apparent dissociation constant for binding of VRAP1 d3 to VLDLR CR78 was determined to be 44±9 nM. […]

T7 sequence (Q07954 852-973, form in doubt): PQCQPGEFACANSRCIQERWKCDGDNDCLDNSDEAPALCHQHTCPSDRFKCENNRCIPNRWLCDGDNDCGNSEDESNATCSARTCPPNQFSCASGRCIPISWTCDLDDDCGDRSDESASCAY
T9 sequence (P98164 1025-1102): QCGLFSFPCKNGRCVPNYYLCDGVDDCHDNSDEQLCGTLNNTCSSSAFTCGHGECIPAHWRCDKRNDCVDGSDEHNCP

Kd (LRP1 CR3-5 [1]) | Kd (VLDLR CR6-8) | % max (LRP1 CR3-5 [2]) | Kd (LRP1 CR3-5 [2]) | % max (LRP2 CR89 [3]) | % max bind (LRP2 CR89 [4]) | % max bind (LRP2 CR89 R1088D) | % max bind (LRP2 CR89 V1047D R1088D) | % max bind (LRP2 CR89 V1047D) | % max bind (LRP2 CR89 Y1042W) | % max bind (LRP2 CR89 Y1042W R1088D) | % max bind [5] | Kd (LRP1 CR3-5 [6]) | binding result (LRP2 CR89 V1047D R1088D) | binding result (LRP2 CR89 V1047D) | binding result (LRP2 CR89 Y1042W) | binding result (LRP2 CR89 Y1042W V1047D) | binding result (LRP2 CR89 Y1042W R1088D) | binding result [5] | binding result (RAP d3) | Binder
0.011 µM | > 0.3 µM | 76% | 0.016 µM | 5% | 7% | 7% | 6% | 6% | 9% | 16% | 15% | 0.016 µM | – | – | – | – | – | – | – | B1
– | – | – | – | – | – | – | – | – | 5% | – | – | – | no binding | no binding | no binding | no binding | no binding | no binding | – | B2
– | – | – | – | – | – | – | – | – | – | – | – | – | – | – | – | – | – | – | no binding (tested: 80 nM) | B3
